Test results reported in patent US20150203579A1 (Regeneron, published 2015).

T1: monkey PD-1 with mFc (monkey)
T1 construct: also called monkey PD-1-mFc; monkey PD-1 dimer
T1 chain: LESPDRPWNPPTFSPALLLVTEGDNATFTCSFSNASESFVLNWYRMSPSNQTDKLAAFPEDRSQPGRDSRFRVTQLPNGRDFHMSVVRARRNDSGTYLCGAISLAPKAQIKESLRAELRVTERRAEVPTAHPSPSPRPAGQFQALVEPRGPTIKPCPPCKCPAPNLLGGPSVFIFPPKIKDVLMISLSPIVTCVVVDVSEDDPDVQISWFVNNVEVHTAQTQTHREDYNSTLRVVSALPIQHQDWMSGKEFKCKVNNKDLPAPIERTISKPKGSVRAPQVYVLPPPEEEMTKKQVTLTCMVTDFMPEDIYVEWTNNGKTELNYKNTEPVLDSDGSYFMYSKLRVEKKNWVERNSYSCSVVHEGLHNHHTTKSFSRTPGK


Key:
[1] = molecular target: T2, full length human PD-1 on HEK293/hPD-1 cells (human, UniProt Q15116 25-288); assay: FACS, 100 nM mAb, HEK293/hPD-1 cells;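 further: antibodies incubated with cells for 15-30 min on ice, bound antibody detected through a secondary F(ab′)2 by flow cytometry, with parental HEK293 cells tested in parallel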
[2] = molecular target: T3, dimeric biotinylated human PD-1 protein with a C-terminal human Fc tag (human, biotinylated (sites not given)); assay: competition ELISA: 200 pM biot-hPD-1-hFc to coated hPD-L1-mFc; * below theoretical bottom 1.0E-10 M
T3 construct: also called biot-hPD-1-hFc

[3] = molecular target: PD-1 chimera: extracellular domain of human PD-1 with trans-membrane and cytoplasmic domains of human CD300a, … (human, UniProt Q9UGN4 181-299, limits assumed); assay: cell-based or functional assay
[4] = molecular target: T4, recombinant human PD-1 dimer expressed with a C-terminal mouse IgG2a Fc tag (human); assay: competition ELISA: 1.5 nM hPD-1-mFc to coated hPD-L1-hFc
T4 construct: also called hPD-1-mFc

[5] = molecular target: T4, recombinant human PD-1 dimer expressed …; assay: BLI Octet: 100 nM hPD-1-mFc + 500 nM mAb to captured hPD-L1-hFc
[6] = molecular target: T2, full length human PD-1 on HEK293/hPD-1 …; assay: FACS, 100 nM mAb
[7] = molecular target: T4, recombinant human PD-1 dimer expressed …; assay: competition ELISA: 1.5 nM hPD-1-mFc to coated hPD-L1-hFc; * below theoretical bottom 7.5E-10 M
[8] = molecular target: T2, full length human PD-1 on HEK293/hPD-1 …; assay: FACS dose response, HEK293/hPD-1 cells
[9] = molecular target: T3, dimeric biotinylated human PD-1 protein …; assay: competition ELISA: 200 pM biot-hPD-1-hFc to coated hPD-L1-mFc
monkey PD-1 with mFc [10] = molecular target: T1, monkey PD-1 with mFc; assay: SPR, captured mAb, 25 C;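 further: purified anti-PD-1 antibodies tested on Biacore 4000 or T200 instruments, rate constants obtained via 1:1 binding model fit, with KD as kd/ka and half-life as ln2/(60·kd)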
[11] = molecular target: T5, recombinant human PD-L1 expressed with a C-terminal mouse IgG2a Fc tag (human); assay: SPR Biacore 3000: 500 nM mAb alone (no hPD-1.hFc) over captured hPD-L1.mFc surface, control
T5 construct: also called hPD-L1-mFc; hPD-L1.mFc

[12] = molecular target: T6, recombinant human PD-1 expressed with a C-terminal human IgG1 Fc tag (human); assay: SPR Biacore 3000: 100 nM hPD-1.hFc + 500 nM mAb to captured hPD-L1.mFc;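 further: inhibition study with anti-PD-1 mAbs, SPR responses tracked in real time and read at the close of each step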
T6 construct: also called hPD-1-hFc; hPD1-hFc

monkey PD-1 with mFc [13] = molecular target: T1, monkey PD-1 with mFc; assay: SPR, captured mAb, 37 C;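 further: Real-time Biacore surface plasmon resonance biosensor readout of PD-1 reagent binding to purified anti-PD-1 monoclonal antibodies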

Binder | MFI [1] | IC50 [2] | Concentration (M) of Antibody at 150% activation [3] | Emax mean [%] @ 100 nM [3] | % blocking at 200 nM antibody [4] | ratio of MFI HEK293/hPD-1 to HEK293 parental cells [6] | IC50 [7] | EC50 [8] | Max Geom. Mean MFI @ 100 nM [8] | % blocking at 50 nM antibody [9] | 100 nM Monkey PD-1-mFc Bound (RU) (monkey PD-1 with mFc [10]) | Kd (monkey PD-1 with mFc [10]) | koff (monkey PD-1 with mFc [10]) | kon (monkey PD-1 with mFc [10]) | t1/2 (monkey PD-1 with mFc [10]) | % Blocking [12] | binding of the mixture (RU) [12] | 100 nM Monkey PD-1-mFc Bound (RU) (monkey PD-1 with mFc [13]) | Kd (monkey PD-1 with mFc [13]) | koff (monkey PD-1 with mFc [13]) | also measured
H2aM7788N (antibody, V domains shown, human variable regions, mouse IgG2a Fc; also called H2M7788N) VH: EVQLVESGGGLVQPGGSLRLSCGASGFTFRNYDMHWVRQITGKGLEWVSAIGSAGDTYYPDSVKGRFTISRENAKNSLYLQMNSLRVGDTAVYYCTRDIHCSSTRCYGMDVWGQGTTVTVSS VL: not shown | 23100 MFI | 65 pM | 4.72e-09 M | 189% | 74% | 75.7 | 220 pM | 321 pM | 14800 MFI | 100% |  |  |  |  |  |  |  |  |  |  | % Blocking [5]: 100%; binding of the mixture (nm) [5]: 0 nm
H4xH9045P (antibody, V domains shown, human IgG4 Fc with 2 or more amino acid changes (US20100331527); also called H4xH9045P2) VH: EVQLVESGGGLVQPGRSLRLSCAASGFTFDDYDMHWVRQAPGKGLEWVSGSGWNRGSLGYADSVKGRFTISRDNAKKSLYLQMNSVRVEDTALYYCAKGFVVVSAAYFDYWGQGTLVTVSS VL: not shown | 8880 MFI |  | 2.23e-08 M | 176% | 98% | 93.7 | 280 pM | 91.7 pM | 24700 MFI | 95% | 78 RU | 1720 pM | 0.000168 s⁻¹ | 97800 M⁻¹ s⁻¹ | 69 min | 105% | -5 RU | 65 RU | 5660 pM | 0.00136 s⁻¹ | 500 nM of anti-PD-1 monoclonal antibody (RU) [11]: -4 RU; IC50 [9]: 130 pM; kon (monkey PD-1 with mFc [13]): 241000 M⁻¹ s⁻¹; t1/2 (monkey PD-1 with mFc [13]): 8 min
H4xH9128P2 (antibody, V domains shown, human IgG4 Fc with 2 or more amino acid changes (US20100331527)) VH: QVQLQESGPGLVKPSETLSLTCTVSGGSISSYHWNWIRQSPGKGLEWIGYIYYIGSTDYNPSLESRVTISVDTSKNQFSLKLSSVTAADTAVYYCARVPVGATGASDVWGQGTMVTVSS VL: not shown | 9080 MFI |  |  |  | 98% |  | 640 pM |  |  | 97% | 64 RU | 1570 pM | 0.000124 s⁻¹ | 78700 M⁻¹ s⁻¹ | 94 min | 105% | -5 RU | 60 RU | 4360 pM | 0.000816 s⁻¹ | 500 nM of anti-PD-1 monoclonal antibody (RU) [11]: -5 RU; IC50 [9]: 190 pM; kon (monkey PD-1 with mFc [13]): 187000 M⁻¹ s⁻¹; t1/2 (monkey PD-1 with mFc [13]): 14 min
H4xH9145P2 (antibody, V domains shown, human IgG4 Fc with 2 or more amino acid changes (US20100331527)) VH: QVQLVESGGGVVQPGRSLRLSCSASGFTFSAYAMHWVRQAPGKGLEWVAAISYGGSDKYYADSVKGRFTISRDNSKNTLYLQMNSLRTDDTAVYYCAKSAHWNFFFDYWGQGTLVTVSS VL: not shown | 11600 MFI |  | 2.4e-09 M | 185% | 90% | 51.2 |  | 232 pM | 30600 MFI | 97% | 84 RU | 2080 pM | 0.00015 s⁻¹ | 72400 M⁻¹ s⁻¹ | 77 min | 106% | -6 RU | 94 RU | 4040 pM | 0.000609 s⁻¹ | 500 nM of anti-PD-1 monoclonal antibody (RU) [11]: -8 RU; IC50 [4]: 930 pM; IC50 [9]: 350 pM; kon (monkey PD-1 with mFc [13]): 151000 M⁻¹ s⁻¹; t1/2 (monkey PD-1 with mFc [13]): 19 min
H4xH9037P (antibody, V domains shown, human IgG4 Fc with 2 or more amino acid changes (US20100331527); also called H4xH9037P2) VH: EVQLVESGGGLVQPGGSLRLSCAASGFTFDDYAMHWVRQAPGKGLEWVSGIGWSSGSIGYADSVKGRFTISRDNAKNSLYLQMDSLRPEDSALYYCAKAYTFMITLYFDYWGQGTLVTVSS VL: not shown | 8790 MFI | 78 pM | 2.82e-09 M | 195% | 100% | 81.4 |  | 674 pM | 36400 MFI | 95% | 58 RU | 912 pM | 0.000137 s⁻¹ | 150000 M⁻¹ s⁻¹ | 84 min | 104% | -4 RU | 24 RU | 3210 pM | 0.000897 s⁻¹ | 500 nM of anti-PD-1 monoclonal antibody (RU) [11]: -4 RU; IC50 [4]: 890 pM; kon (monkey PD-1 with mFc [13]): 280000 M⁻¹ s⁻¹; t1/2 (monkey PD-1 with mFc [13]): 13 min
H2aM7780N (antibody, V domains shown, human variable regions, mouse IgG2a Fc; also called H2M7780N) VH: QVQLVESGGGVVQSGRSLRLSCAASGFTFSSYGMHWVRQAPGKGLEWVAVIWYDGSNIYYSDSVKGRFTISRANSKNTLYLQMNSLRAEDTAVYYCARPGHWNYFFEYWGQGTLVTVSS VL: DIQMTQSPSSLSASVGDRVTITCRASQSINNYLNWYQQKPGKAPKLLIYTASSLQSGVPSRFSGSGSGTDFTLTISSLQPEDFATYYCQQSYSTPPLTFGQGTQLEIK | 23700 MFI | 91 pM | 6.52e-09 M | 228% | 94% | 73.8 | 690 pM | 1690 pM | 18400 MFI | 100% |  |  |  |  |  |  |  |  |  |  | % Blocking [5]: 114%; binding of the mixture (nm) [5]: -0.01 nm
H4H9057P2 (antibody, V domains shown, fully human; H4H prefix (human IgG4 Fc)) VH: EVQLVESGGGLVQSGRSLRLSCAASGFTFDDYAMHWVRQPPGKGLEWVSGINWNRGRTGYADSVKGRFTISRDNAKNSLYLQMNDLRVEDTALYYCAKAEQWLDEGYFDYWGQGTLVTVSS VL: not shown | 6500 MFI |  | 2.68e-08 M | 212% | 98% | 46.1 | 190 pM | 236 pM | 20000 MFI |  | 75 RU | 2980 pM | 0.000303 s⁻¹ | 102000 M⁻¹ s⁻¹ | 38 min | 43% | 57 RU | 28 RU | 29600 pM | 0.00477 s⁻¹ | kon (monkey PD-1 with mFc [13]): 161000 M⁻¹ s⁻¹; t1/2 (monkey PD-1 with mFc [13]): 2.4 min
H1M7799N (antibody, V domains shown, human variable regions, mouse IgG1 Fc) VH: EVQLVESGGGLVQPGGSLRLSCAASGFTVSNNYMSWVRQAPGKGLEWVSVIYSGGFTYYTDSVKGRFTISRHNSKNTLYLQMNSLRAEDTAVYYCARYYYDTSDYWTFFDYWGQGTLVTVSS VL: EIVMTQSPATLSVSPGERATLSCRASQSVSSNLAWYQQKPGQAPRLLIYGASTRATGIPARFSGSGSGTEFTLTISSLQSGDFAVYYCQQYNNWPLTFGGGTKVEIN | 6860 MFI | 59 pM | 2.97e-08 M | 183% | 82% | 26.9 | 220 pM | 33.2 pM | 24400 MFI | 100% |  |  |  |  |  |  |  |  |  |  | % Blocking [5]: 100%; binding of the mixture (nm) [5]: 0 nm
H1M7800N (antibody, V domains shown, human variable regions, mouse IgG1 Fc) VH: EVQLVESGGGLVQPGGSLRLSCAASGFTVSNNYMSWVRQAPGKGLEWVSVIYSGGFTYYTDSVKGRFTISRHNSKNTLYLQMNSLRAEDTAVYYCARYYYDTSDYWTFFDYWGQGTLVTVSS VL: EIVMTQSPATLSVSPGERATLSCRASQSVSSNLAWYQQKPGQAPRLLIYGASTRATGIPARFSGSGSGTEFTLTISSLQSGDFAVYYCQQYNNWPLTFGGGTKVEIN | 6810 MFI | 65 pM | 1.65e-08 M | 182% | 83% | 24.7 | 600 pM | 48 pM | 20800 MFI | 99% |  |  |  |  |  |  |  |  |  |  | % Blocking [5]: 100%; binding of the mixture (nm) [5]: 0 nm
